Measurements reported in PMC10567853, “USP1 promotes cholangiocarcinoma progression by deubiquitinating PARP1 to prevent its proteasomal degradation” (Cell Death & Disease, 2023).

Molecular target: T1, Myc-tagged full-length (FL) PARP1 (UniProt P09874 1-1014)
T1 construct: also called Myc-PARP1
Assay: pull-down; GST, GST-USP1 or GST-USP1 C90S coupled to glutathione-Sepharose beads, incubated with purified Myc-PARP1; 50 mM Tris-HCl, 200 mM NaCl, 1 mM EDTA, 1% NP-40, 1 mM DTT, 10 mM MgCl2, pH 8.0; 4 °C, 4 hours
Conditions: both partners purified

T1 sequence (P09874 whole entry): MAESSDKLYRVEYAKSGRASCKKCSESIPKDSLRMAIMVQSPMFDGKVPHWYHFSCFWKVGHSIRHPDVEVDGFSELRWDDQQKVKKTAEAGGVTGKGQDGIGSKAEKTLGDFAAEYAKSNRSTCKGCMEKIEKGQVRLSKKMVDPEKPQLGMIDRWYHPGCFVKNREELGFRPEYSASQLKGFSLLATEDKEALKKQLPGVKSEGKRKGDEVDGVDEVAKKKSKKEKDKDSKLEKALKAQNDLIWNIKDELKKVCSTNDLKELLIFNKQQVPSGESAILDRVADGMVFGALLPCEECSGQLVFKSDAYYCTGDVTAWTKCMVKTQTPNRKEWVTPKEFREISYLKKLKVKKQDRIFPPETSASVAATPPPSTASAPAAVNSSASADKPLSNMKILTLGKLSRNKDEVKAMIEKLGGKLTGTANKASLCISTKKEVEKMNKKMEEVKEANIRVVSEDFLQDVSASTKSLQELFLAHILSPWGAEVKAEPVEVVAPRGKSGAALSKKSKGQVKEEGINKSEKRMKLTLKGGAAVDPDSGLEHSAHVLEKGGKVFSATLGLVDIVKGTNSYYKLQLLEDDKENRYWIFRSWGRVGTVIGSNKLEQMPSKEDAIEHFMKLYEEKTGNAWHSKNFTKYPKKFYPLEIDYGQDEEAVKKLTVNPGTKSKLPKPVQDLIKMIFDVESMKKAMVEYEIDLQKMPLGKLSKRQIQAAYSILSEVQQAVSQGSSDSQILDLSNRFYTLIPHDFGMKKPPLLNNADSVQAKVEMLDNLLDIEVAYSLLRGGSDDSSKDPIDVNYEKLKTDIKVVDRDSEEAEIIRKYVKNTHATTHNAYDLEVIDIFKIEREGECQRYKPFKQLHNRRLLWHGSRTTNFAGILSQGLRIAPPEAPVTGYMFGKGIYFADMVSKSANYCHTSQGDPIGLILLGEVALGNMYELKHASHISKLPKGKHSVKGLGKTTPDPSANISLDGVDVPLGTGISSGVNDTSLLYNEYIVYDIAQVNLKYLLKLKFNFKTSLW

| binding result | Binder |
| --- | --- |
| binds | GST-USP1 (enzyme, UniProt O94782 1-785, looked up, Coupled to glutathione-Sepharose beads in the pull-down; also called recombinant GST-USP1; source: E. coli BL21 (DE3), purified (GST-tag purification resin)) MPGVIPSESNGLSRGSPSKKNRLSLKFFQKKETKRALDFTDSQENEEKASEYRASEIDQVVPAAQSSPINCEKRENLLPFVGLNNLGNTCYLNSILQVLYFCPGFKSGVKHLFNIISRKKEALKDEANQKDKGNCKEDSLASYELICSLQSLIISVEQLQASFLLNPEKYTDELATQPRRLLNTLRELNPMYEGYLQHDAQEVLQCILGNIQETCQLLKKEEVKNVAELPTKVEEIPHPKEEMNGINSIEMDSMRHSEDFKEKLPKGNGKRKSDTEFGNMKKKVKLSKEHQSLEENQRQTRSKRKATSDTLESPPKIIPKYISENESPRPSQKKSRVKINWLKSATKQPSILSKFCSLGKITTNQGVKGQSKENECDPEEDLGKCESDNTTNGCGLESPGNTVTPVNVNEVKPINKGEEQIGFELVEKLFQGQLVLRTRCLECESLTERREDFQDISVPVQEDELSKVEESSEISPEPKTEMKTLRWAISQFASVERIVGEDKYFCENCHHYTEAERSLLFDKMPEVITIHLKCFAASGLEFDCYGGGLSKINTPLLTPLKLSLEEWSTKPTNDSYGLFAVVMHSGITISSGHYTASVKVTDLNSLELDKGNFVVDQMCEIGKPEPLNEEEARGVVENYNDEEVSIRVGGNTQPSKVLNKKNVEAIGLLGGQKSKADYELYNKASNPDKVASTAFAENRNSETSDTTGTHESDRNKESSDQTGINISGFENKISYVVQSLKEYEGKWLLFDDSEVKVTEEKDFLNSLSPSTSPTSTPYLLFYKKL |
| binds | GST-USP1 C90S (enzyme, UniProt O94782 1-785, looked up, Coupled to glutathione-Sepharose beads in the pull-down; source: E. coli BL21 (DE3), purified (GST-tag purification resin)) MPGVIPSESNGLSRGSPSKKNRLSLKFFQKKETKRALDFTDSQENEEKASEYRASEIDQVVPAAQSSPINCEKRENLLPFVGLNNLGNTSYLNSILQVLYFCPGFKSGVKHLFNIISRKKEALKDEANQKDKGNCKEDSLASYELICSLQSLIISVEQLQASFLLNPEKYTDELATQPRRLLNTLRELNPMYEGYLQHDAQEVLQCILGNIQETCQLLKKEEVKNVAELPTKVEEIPHPKEEMNGINSIEMDSMRHSEDFKEKLPKGNGKRKSDTEFGNMKKKVKLSKEHQSLEENQRQTRSKRKATSDTLESPPKIIPKYISENESPRPSQKKSRVKINWLKSATKQPSILSKFCSLGKITTNQGVKGQSKENECDPEEDLGKCESDNTTNGCGLESPGNTVTPVNVNEVKPINKGEEQIGFELVEKLFQGQLVLRTRCLECESLTERREDFQDISVPVQEDELSKVEESSEISPEPKTEMKTLRWAISQFASVERIVGEDKYFCENCHHYTEAERSLLFDKMPEVITIHLKCFAASGLEFDCYGGGLSKINTPLLTPLKLSLEEWSTKPTNDSYGLFAVVMHSGITISSGHYTASVKVTDLNSLELDKGNFVVDQMCEIGKPEPLNEEEARGVVENYNDEEVSIRVGGNTQPSKVLNKKNVEAIGLLGGQKSKADYELYNKASNPDKVASTAFAENRNSETSDTTGTHESDRNKESSDQTGINISGFENKISYVVQSLKEYEGKWLLFDDSEVKVTEEKDFLNSLSPSTSPTSTPYLLFYKKL |
